Laboratory results: patent publication JP2014141434A (dated 2014)

T1: ヒトROBO2 (human)
T1 construct: also called hROBO2; pCI−hROBO2
T1 chain: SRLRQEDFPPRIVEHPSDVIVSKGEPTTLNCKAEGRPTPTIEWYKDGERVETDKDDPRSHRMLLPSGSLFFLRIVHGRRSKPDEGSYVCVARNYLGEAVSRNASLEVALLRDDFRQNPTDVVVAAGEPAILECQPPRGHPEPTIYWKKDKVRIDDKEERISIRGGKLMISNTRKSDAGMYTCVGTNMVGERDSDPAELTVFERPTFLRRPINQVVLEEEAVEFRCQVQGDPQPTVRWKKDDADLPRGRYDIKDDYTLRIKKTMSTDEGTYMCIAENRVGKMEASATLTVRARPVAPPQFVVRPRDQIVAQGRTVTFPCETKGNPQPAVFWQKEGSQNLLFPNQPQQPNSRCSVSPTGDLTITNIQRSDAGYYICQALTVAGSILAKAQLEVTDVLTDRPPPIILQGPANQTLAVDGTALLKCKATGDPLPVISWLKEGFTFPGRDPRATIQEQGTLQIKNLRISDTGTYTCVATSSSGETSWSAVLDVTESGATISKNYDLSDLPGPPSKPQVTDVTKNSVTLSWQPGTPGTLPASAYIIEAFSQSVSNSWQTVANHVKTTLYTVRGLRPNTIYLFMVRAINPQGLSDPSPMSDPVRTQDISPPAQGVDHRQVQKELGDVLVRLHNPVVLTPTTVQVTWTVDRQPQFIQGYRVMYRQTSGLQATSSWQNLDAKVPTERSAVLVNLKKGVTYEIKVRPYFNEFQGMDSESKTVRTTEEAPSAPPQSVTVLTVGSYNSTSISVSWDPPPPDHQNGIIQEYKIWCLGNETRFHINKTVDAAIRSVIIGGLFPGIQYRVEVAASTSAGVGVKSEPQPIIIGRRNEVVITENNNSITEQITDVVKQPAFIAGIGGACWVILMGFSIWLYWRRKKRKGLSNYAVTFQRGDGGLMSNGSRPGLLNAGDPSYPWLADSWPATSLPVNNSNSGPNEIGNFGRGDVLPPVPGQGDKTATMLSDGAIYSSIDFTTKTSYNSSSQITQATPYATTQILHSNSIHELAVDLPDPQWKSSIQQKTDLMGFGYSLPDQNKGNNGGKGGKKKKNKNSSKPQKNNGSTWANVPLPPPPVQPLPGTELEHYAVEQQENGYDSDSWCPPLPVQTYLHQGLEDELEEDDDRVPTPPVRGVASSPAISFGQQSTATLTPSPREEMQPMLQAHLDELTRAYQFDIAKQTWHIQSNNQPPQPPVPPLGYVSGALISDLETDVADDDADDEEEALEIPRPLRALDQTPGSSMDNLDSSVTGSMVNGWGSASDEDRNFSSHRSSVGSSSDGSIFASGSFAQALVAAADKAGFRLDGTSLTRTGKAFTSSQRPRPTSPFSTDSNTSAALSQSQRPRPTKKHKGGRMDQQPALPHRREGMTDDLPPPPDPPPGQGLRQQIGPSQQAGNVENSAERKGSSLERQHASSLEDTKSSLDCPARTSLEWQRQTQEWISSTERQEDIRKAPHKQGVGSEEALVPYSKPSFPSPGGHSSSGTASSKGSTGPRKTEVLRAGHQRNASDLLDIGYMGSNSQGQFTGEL

T2: ラットROBO4 (pCI−raROBO4導入細胞) (rat, UniProt Q80W87 38-949 at identity 0.93))
T2 construct: also called rat ROBO4; raROBO4
T2 chain: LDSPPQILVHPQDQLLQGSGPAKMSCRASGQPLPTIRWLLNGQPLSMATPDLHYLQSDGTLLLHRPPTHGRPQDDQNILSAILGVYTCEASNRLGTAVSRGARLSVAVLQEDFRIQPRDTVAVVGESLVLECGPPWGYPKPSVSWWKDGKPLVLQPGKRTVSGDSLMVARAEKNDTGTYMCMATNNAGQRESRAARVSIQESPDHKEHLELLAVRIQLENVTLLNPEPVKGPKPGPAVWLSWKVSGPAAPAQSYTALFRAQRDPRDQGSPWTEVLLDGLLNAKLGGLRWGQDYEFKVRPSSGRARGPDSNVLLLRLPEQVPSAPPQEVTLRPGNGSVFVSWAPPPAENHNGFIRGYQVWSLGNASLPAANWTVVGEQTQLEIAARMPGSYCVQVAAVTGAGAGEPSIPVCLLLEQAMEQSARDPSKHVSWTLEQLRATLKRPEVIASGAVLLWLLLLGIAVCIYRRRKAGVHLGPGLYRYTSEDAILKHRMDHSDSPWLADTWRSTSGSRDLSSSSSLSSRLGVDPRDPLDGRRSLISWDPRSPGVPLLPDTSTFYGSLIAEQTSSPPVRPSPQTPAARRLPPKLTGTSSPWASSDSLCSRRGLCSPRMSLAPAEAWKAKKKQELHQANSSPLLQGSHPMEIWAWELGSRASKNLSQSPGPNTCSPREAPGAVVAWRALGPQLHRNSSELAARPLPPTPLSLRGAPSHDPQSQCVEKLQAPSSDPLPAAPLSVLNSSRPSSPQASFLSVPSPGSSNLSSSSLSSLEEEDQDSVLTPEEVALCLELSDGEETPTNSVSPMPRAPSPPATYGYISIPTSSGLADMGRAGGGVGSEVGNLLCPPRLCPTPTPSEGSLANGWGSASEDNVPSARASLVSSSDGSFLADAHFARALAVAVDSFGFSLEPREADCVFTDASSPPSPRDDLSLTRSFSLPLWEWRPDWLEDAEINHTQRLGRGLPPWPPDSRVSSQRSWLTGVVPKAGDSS

T3: rROBO4−ECD (ヒトROBO4細胞外領域ポリペプチド) (human, UniProt Q8WZ75 28-461)
T3 construct: It was cloned in pEF6/V5-His-TOPO; also called ヒトROBO4−ECD; rROBO4-ECD
T3 sequence: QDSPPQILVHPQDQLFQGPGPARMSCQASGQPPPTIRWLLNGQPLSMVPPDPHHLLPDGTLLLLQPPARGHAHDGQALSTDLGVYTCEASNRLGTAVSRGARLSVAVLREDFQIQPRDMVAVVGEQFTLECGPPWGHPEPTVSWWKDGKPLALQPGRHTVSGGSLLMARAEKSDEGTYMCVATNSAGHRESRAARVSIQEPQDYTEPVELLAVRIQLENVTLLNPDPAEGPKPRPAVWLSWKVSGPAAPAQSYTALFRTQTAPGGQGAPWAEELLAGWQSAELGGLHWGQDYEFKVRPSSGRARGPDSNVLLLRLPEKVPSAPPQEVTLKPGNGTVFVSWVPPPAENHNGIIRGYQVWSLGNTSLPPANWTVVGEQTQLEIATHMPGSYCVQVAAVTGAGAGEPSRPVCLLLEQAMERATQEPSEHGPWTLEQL


Columns and labels:
ヒトROBO2 = biological target: T1, ヒトROBO2; assay: flow cytometry, transfected HEK293 cells
[1] = biological target: T2, ラットROBO4 (pCI−raROBO4導入細胞); assay: flow cytometry, transfected HEK293 cells
[2] = biological target: T3, rROBO4−ECD (ヒトROBO4細胞外領域ポリペプチド); assay: SPR, Biacore 3000; antibody captured by anti-human IgG on CM5 chip, rROBO4-ECD (0.1-200 nM) as analyte, 1:1 model

Binder | Kd [2] [nM] | binding result (ヒトROBO2) | binding result [1]
ヒト化MAb1抗体 H−2143 (antibody, human IgG2, kappa, V domains shown, Humanised IgG2 / kappa; also called H-2143; hMAb1-H4 / hMAb1-L2) VH: EVQLVESGGGLVQPGGSLRLSCAASGFTFSTYAMSWVRQAPGKRLEWVATISQGGTYTYYPDSVKGRFTISRDNAKNTLYLQMNSLRAEDTAVYYCARLIYYDYLDYWGQGTLVTVSS VL: DIVMTQSPLSLPVTLGEPASISCRSSQSLENENKNLYLNWYLQKPGQSPQLLIYRVSNRFSGVPDRFSGSGSGTDFTLKISRVEAEDVGVYYCLQVTHVPWTFGPGTKVDIKR | 1.7 | no binding (tested: 10 μg/mL (method of 4)-4-2)) | no binding (tested: 10 μg/mL (method of 4)-3-2))
抗ROBO4マウスモノクローナル抗体 MAb1 (antibody, V domains shown, Mouse IgG1 (gamma 1) / kappa from a hybridoma; The constant regions are not in the listing; also called MAb1) VH: EVQLVESGGGLVKPGGSLKLSCAASGFTFSTYAMSWVRQTPEKRLEWVATISNGGTYTYYPDSVKGRFTISRDNAENTLYLQMSSLRSEDTAMYFCARLIYYDYLDYWGHGTTLTVSS VL: DAVMTQTPLSLPVSLGDQASISCRSSQSLENSNGNTYLNWYFQKPGQSPQLLIYRVSNRFSGVLDRFSGSGSGTDFTLKISRVEAEDFGVYFCLQVTHVPWTFGGGTKLEIKR | – | no binding (tested: 10 μg/mL) | no binding (tested: 10 μg/mL)

More lines, main results first:

Kd [2] [nM] | Binder | binding result (ヒトROBO2) | binding result [1]
3.5 | ヒト化MAb1抗体 H−1143 (antibody, human IgG2, kappa, V domains shown, Humanised IgG2 / kappa; also called H-1143; hMAb1-H2 / hMAb1-L2) VH: EVQLVESGGGLVQPGGSLRLSCAASGFTFSTYAMSWVRQAPGKGLEWVATISQGGTYTYYPDSVKGRFTISRDNAKNTLYLQMNSLRAEDTAVYYCARLIYYDYLDYWGQGTLVTVSS VL: DIVMTQSPLSLPVTLGEPASISCRSSQSLENENKNLYLNWYLQKPGQSPQLLIYRVSNRFSGVPDRFSGSGSGTDFTLKISRVEAEDVGVYYCLQVTHVPWTFGPGTKVDIKR | no binding (tested: 10 μg/mL (method of 4)-4-2)) | no binding (tested: 10 μg/mL (method of 4)-3-2))
1.8 | ヒト化MAb1抗体 H−2140 (antibody, human IgG2, kappa, V domains shown, Humanised IgG2 / kappa; also called H-2140; hMAb1-H4 / hMAb1-L1) VH: EVQLVESGGGLVQPGGSLRLSCAASGFTFSTYAMSWVRQAPGKRLEWVATISQGGTYTYYPDSVKGRFTISRDNAKNTLYLQMNSLRAEDTAVYYCARLIYYDYLDYWGQGTLVTVSS VL: DIVMTQSPLSLPVTLGEPASISCRSSQSLENSNGNTYLNWYLQKPGQSPQLLIYRVSNRFSGVPDRFSGSGSGTDFTLKISRVEAEDVGVYYCLQVTHVPWTFGPGTKVDIKR | no binding (tested: 10 μg/mL (method of 4)-4-2)) | no binding (tested: 10 μg/mL (method of 4)-3-2))
